Where a chain is given by its changes, count along the chain named. One block for each binder: values may come before it.
Assays:
[1] = molecular target: double or triple mutants (L77A/V80A, L77A/I84A, V80A/L81A, L77A/V80A/L81A) of PBX1; experiment: time-resolved fluorescence immunoassay (TR-FIA); plate coated with monoclonal anti-PBX1; PBX1 pre-incubated with PREP1 or MEIS1 for 1 h on ice, 10 µg/mL in 1% BSA PBS, 1 h at room temperature on the plate; detected with anti-PREP1 or biotinylated anti-MEIS1/2 and Eu^3+ conjugates; normalised to the wild-type protein taken as 1
[2] = molecular target: PBX1Δ197-204 (human) (UniProt P40424); experiment: as above
[3] = molecular target: single mutations of most hydrophobic residues (V80, L81 and I84) of PBX1; experiment: as above
[4] = molecular target: T1, PREP1 L63A (UniProt P55347 1-436, L63A); experiment: as above; conditions: both partners purified
T1 construct: PREP1 (PKNOX1), residues 1-436
T1 sequence (looked up): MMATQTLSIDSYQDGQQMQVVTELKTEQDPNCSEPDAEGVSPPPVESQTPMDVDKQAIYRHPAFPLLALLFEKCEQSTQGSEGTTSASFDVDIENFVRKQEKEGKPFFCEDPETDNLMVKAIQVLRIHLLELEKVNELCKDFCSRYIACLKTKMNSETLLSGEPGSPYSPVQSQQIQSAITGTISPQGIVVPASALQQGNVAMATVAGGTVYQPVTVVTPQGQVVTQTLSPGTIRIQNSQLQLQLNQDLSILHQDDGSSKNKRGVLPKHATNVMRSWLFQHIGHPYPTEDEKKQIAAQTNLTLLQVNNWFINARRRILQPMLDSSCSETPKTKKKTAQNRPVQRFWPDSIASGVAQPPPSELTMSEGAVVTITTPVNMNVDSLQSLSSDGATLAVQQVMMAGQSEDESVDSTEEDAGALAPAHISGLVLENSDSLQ

[5] = molecular target: T2, N-terminal GST-fused wild-type PREP1 (UniProt P55347 1-436); experiment: ELISA; PBX1 wild-type coated at 0.1 µM in 100 mM Tris–HCl pH 7.5; GST-fused proteins at 0.23 nM to 0.5 µM, 1 h at 37 °C; anti-GST detection; GST signal subtracted; one-site binding model; conditions: both partners purified
T2 construct: PREP1 (PKNOX1), residues 1-436; Detected through GST in the ELISA; also called GST-fused PREP1; source: E. coli, purified; not shown: GST, N-terminal, kept
T2 sequence (looked up): T1 sequence (looked up) with A63L

binding relative to wild type [1]: 30 to 40%
binding relative to wild type [2]: 65%
binding relative to wild type [3]: 40 to 60%
B1: PREP1_(1-436), wild-type recombinant (TR-FIA) (natural protein, UniProt P55347 1-436, looked up)
chain: T1 sequence (looked up) with A63L
notes: also called wild-type PREP1; PKNOX1; source: E. coli, purified

binding result [4]: binds
Kd [5]: 18 ± 4 nM
B2: PBX1_(1-430), wild-type recombinant (natural protein, human, UniProt P40424 1-430, looked up)
chain: MDEQPRLMHSHAGVGMAGHPGLSQHLQDGAGGTEGEGGRKQDIGDILQQIMTITDQSLDEAQARKHALNCHRMKPALFNVLCEIKEKTVLSIRGAQEEEPTDPQLMRLDNMLLAEGVAGPEKGGGSAAAAAAAAASGGAGSDNSVEHSDYRAKLSQIRQIYHTELEKYEQACNEFTTHVMNLLREQSRTRPISPKEIERMVSIIHRKFSSIQMQLKQSTCEAVMILRSRFLDARRKRRNFNKQATEILNEYFYSHLSNPYPSEEAKEELAKKCGITVSQVSNWFGNKRIRYKKNIGKFQEEANIYAAKTAVTATNVSAHGSQANSPSTPNSAGSSSSFNMSNSGDLFMSVQSLNGDSYQGAQVGANVQSQVDTLRHVISQTGGYSDGLAASQMYSPQGISANGGWQDATTPSSVTSPTEGPGSVHSDTSN
notes: also called wild-type PBX1; purified recombinant human PBX1; source: E. coli, purified
